In patent US20240109974A1 (SHANDONG SIMCERE BIOPHARMACEUTICAL, published 2024):

T1: human TNFR2 on the surface of CHO-TNFR2 cells (human, UniProt P20333 23-461)
T1 construct: whole, on cells
T1 sequence (looked up): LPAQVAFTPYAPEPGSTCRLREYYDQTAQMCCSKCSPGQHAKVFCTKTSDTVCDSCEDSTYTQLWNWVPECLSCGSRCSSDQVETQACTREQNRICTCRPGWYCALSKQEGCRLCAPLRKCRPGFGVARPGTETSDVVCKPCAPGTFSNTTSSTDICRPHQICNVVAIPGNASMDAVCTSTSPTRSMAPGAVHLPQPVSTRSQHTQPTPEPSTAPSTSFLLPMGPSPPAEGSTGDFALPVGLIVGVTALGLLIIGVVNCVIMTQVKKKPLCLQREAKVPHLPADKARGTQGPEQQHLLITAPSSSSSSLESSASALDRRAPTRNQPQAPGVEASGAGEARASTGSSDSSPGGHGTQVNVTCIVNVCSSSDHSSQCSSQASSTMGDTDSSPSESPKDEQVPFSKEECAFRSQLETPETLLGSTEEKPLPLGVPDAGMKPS

T2: Human TNFR2-His (Sino 10417-H08H) (human, UniProt P20333 23-257)
T2 construct: Bought protein; also called recombinant human TNFR2 protein; not shown: His tag
T2 sequence (looked up): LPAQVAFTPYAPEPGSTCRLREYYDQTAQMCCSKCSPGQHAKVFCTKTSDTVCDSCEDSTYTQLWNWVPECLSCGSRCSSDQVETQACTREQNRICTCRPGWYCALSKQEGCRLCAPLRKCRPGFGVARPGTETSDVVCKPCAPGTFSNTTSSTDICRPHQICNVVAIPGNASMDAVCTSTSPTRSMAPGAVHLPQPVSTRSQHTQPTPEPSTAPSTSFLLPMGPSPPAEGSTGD

T3: Cynomolgus TNFR2-His (Sino 90102-C08H) (cynomolgus monkey, UniProt A0A2K5VET2 132-366)
T3 construct: Bought protein; also called cynomolgus monkey TNFR2; recombinant cynomolgus monkey TNFR2 protein; not shown: His tag
T3 sequence: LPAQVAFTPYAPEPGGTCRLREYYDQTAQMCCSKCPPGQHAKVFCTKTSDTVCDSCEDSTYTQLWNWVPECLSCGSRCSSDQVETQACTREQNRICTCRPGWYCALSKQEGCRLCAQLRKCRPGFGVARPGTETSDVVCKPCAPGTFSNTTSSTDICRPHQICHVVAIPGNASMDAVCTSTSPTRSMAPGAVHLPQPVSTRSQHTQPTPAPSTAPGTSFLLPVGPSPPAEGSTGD


Assays:
[1] = target: T1, human TNFR2 on the surface of CHO-TNFR2 …; test: flow cytometry competition: antibody titrated on CHO-TNFR2 cells, then human TNFα-biotin, detection with PE-streptavidin [panel A]
Protocol: (§1) CHO stable cells highly expressing human TNFR2 were used for the experiment (the same as CHO-TNFR2 in Example 4). The CHO-TNFR2 cells were digested, washed twice with DPBS, then stained with Live/Dead (L/D) (20 minutes at room temperature), and plated at a density of 1×10⁵ cells/50 μl/well. A test anti-TNFR2 antibody was diluted to 6 μg/ml with a staining buffer as the starting concentration: the antibody was subjected to 3.33-fold gradient dilution, with a total of 7 concentration points. The diluted antibody was added to the plated cells at 50 μl/well, and the mixture was mixed well by gentle pipetting, and incubated at 4° C. for 30 minutes. Then the diluted 100 ng/ml of human TNFα-biotin was added at 100 μl/well, and the mixture was mixed well by gentle pipetting, and then incubated at 4° C. for 30 minutes. The mixture was washed twice with a staining buffer, and then 0.12 μg/ml PE-streptavidin (BioLegend, Cat #405204) was added at 100 μl/well; the resulting mixture was incubated at 4° C. for 30 minutes. The mixture was washed twice with a staining buffer, and then 150 μl of staining buffer was added to resuspend the cells; signals were detected by a flow cytometer (Thermo Attune NxT). […]

[2] = target: T2, Human TNFR2-His (Sino 10417-H08H); test: ELISA, plate coated with Human TNFR2-His, detection with anti-human IgG Fc-HRP [panel A]
Protocol: (§2) The test humanized antibody against TNFR2 (as described in Example 1, the antibody was comprised of variable regions linked to IgG-Fc; the WT chimeric antibody also adopted the IgG-Fc structure) was subjected to 3.33-fold gradient dilution, loaded with 100 μl/well, and incubated with shaking at room temperature for 1.5 hours. The plate was washed, and then a working solution of murine anti-human IgG Fc-HRP (diluted at 1:10000) was added, loaded with 100 μl/well, and incubated with shaking at room temperature for 1.0 hour. The plate was washed again, and then the substrate TMB of HRP was added to develop colour. A stop solution was added to stop the reaction, and then a microplate reader (MD 13) was used to read the absorbance value. The binding curve of an antibody was drawn with antibody concentration as the abscissa and corresponding OD value as the ordinate, and fitted with four parameters (GraphPad Prism9) to calculate the EC50 value. The smaller the EC50 value, the stronger the binding ability of an antibody to human/cynomolgus monkey TNFR2. The binding effect of a humanized antibody was normalized to its corresponding human-murine chimeric antibody WT (see SEQ ID NOs: 38-43 for the sequence). The higher the percentage value, the better the binding effect of the humanized antibody. […]

[3] = target: T1, human TNFR2 on the surface of CHO-TNFR2 …; test: flow cytometry competition: antibody titrated on CHO-TNFR2 cells, then human TNFα-biotin, detection with PE-streptavidin [panel B]
Protocol: as §1

[4] = target: T3, Cynomolgus TNFR2-His (Sino 90102-C08H); test: ELISA, plate coated with Cynomolgus TNFR2-His, detection with anti-human IgG Fc-HRP [panel B]
Protocol: as §2

Binder	IC50 (read off the curve) [1]	EC50 (read off the curve) [2]	IC50 (read off the curve) [3]	EC50 (read off the curve) [4]
001-WT (antibody, V domains shown, Human-murine chimeric wild-type molecule; also called human-murine chimeric antibody WT of #001) VH: EVQLQESGGGLVQPGGSLNLSCAASGFAFSTYDLSWVRQTPEKRLEWVAYINNGGISTYYSDTVKGRFTISRDNAKNTLYLQMSSLKSEDTAMYYCVRGPFYGSANYFDYWGQGTTVTVSS VL: EIVMTQSPASLSLSVGETVTITCRTSESIYSNLPWYQQKQGKSPQLLVYDATKLAEGVPSRFSGSESGTQYSLKINSLQSEDFGTYYCQHFWVTPWTFGGGTKLEIK	~0.09 µg/mL	~0.01 µg/mL		
219-WT (antibody, V domains shown, Human-murine chimeric wild-type molecule) VH: EVQLQESGAELVRPGASVKLSCKASGYSFTNYWMNWVKQRPGQGLEWIGMIHPSDTETRLNQNFKDKATLTVDKSSSTSYMQLSSPTSEDSAVYYCARGEGLGAARSVSMDYWGQGTTVTVSS VL: DILMTQSPSSLSASLGDRVTISCRASQDISNYLNWYQQKPDGTVKVLIYYTAILHSGVPSRFSGSGSGTDYSLTISNLEQEDIATYFCQQGNTLPWTFGGGTKLEIK			~0.05 µg/mL	~0.01 µg/mL
